Test results published in patent publication US20070243571A1, “Method for Measurement of Activity of Homocysteinethiolactone Hydrolyzing Enzyme” (priority 2004, published 2007).
Read-outs that look alike come from different tables or passages of the source.

B1: Cholinesterase: Human butyrylcholinesterase (348643, Boehringer) dissolved in purified water, 2.0 U/ml solution (protein, UniProt P06276 29-602, looked up)
Cholinesterase: EDDIIIATKNGKVRGMNLTVFGGTVTAFLGIPYAQPPLGRLRFKKPQSLTKWSDIWNATKYANSCCQNIDQSFPGFHGSEMWNPNTDLSEDCLYLNVWIPAPKPKNATVLIWIYGGGFQTGTSSLHVYDGKFLARVERVIVVSMNYRVGALGFLALPGNPEAPGNMGLFDQQLALQWVQKNIAAFGGNPKSVTLFGESAGAASVSLHLLSPGSHSLFTRAILQSGSFNAPWAVTSLYEARNRTLNLAKLTGCSRENETEIIKCLRNKDPQEILLNEAFVVPYGTPLSVNFGPTVDGDFLTDMPDILLELGQFKKTQILVGVNKDEGTAFLVYGAPGFSKDNNSIITRKEFQEGLKIFFPGVSEFGKESILFHYTDWVDDQRPENYREALGDVVGDYNFICPALEFTKKFSEWGNNAFFYYFEHRSSKLPWPEWMGVMHGYEIEFVFGLPLERRDNYTKAEEILSRSIVKRWANFAKYGNPNETQNNSTSWPVFKSTEQKYLTLNTESTRIMTKLRAQQCRFWTSFFPKVLEMTGNIDEAEWEWKAGFHRWNNYMMDWKNQFNDYTSKKESCVGL

Assays:
[1] = Autolysis of the substrate in reagent-blank (purified water as sample); assay type: physicochemical; conditions: HTL, MOPS buffer pH 7.8, purified water as sample
Procedure: (§1) Following the above parameters, purified water, 15 μl of a sample and 200 μl of reagent 1(A) or 1(B) or 1(C) or 1(D) was dispensed and mixed, and, after a certain length of time at a constant temperature (37° C., 5 min), 50 μl of reagent 2 was added and mixed to allow reaction to start. When reagent 2 was added to the mixture of the fraction containing serum, plasma, albumin or HDL and reagent 1(A), 1(C) or 1(D), increase in absorbance was detected which was due to the reaction of the SH-group detection reagent with DL-homocysteine, which has a free SH group, formed by hydrolysis of HTL.
As evident from FIG. 2, increase in absorbance is suppressed when calcium ion is blocked by EDTA.
as §1, with “parameters,” for “parameters, purified water,”, “cholinesterase” for “albumin”, “1(A),” for “1(A), 1(C) or 1(D),”, “4-mercaptobutyric acid,” for “DL-homocysteine,”, “by” for “by hydrolysis”, “HTL hydrolyzing enzyme.” for “HTL.”
As evident from FIG. 4, increase in absorbance is suppressed when calcium ion is not present. […]

[2] = biological target: T1, Human butyrylcholinesterase (Homo sapiens, UniProt P06276); assay: Hydrolysis of substrate by purified human cholinesterase; assay type: biochemical; conditions: 2.0 U/ml human butyrylcholinesterase solution as sample
T1 construct: purchased Boehringer 348643
Procedure: Human butyrylcholinesterase (348643, Boehringer) was dissolved in purified water to prepare a 2.0 U/ml solution.
as §1
as §1, with “parameters,” for “parameters, purified water,”, “cholinesterase” for “albumin”, “1(A),” for “1(A), 1(C) or 1(D),”, “4-mercaptobutyric acid,” for “DL-homocysteine,”, “by” for “by hydrolysis”, “HTL hydrolyzing enzyme.” for “HTL.”

HTL hydrolyzing enzyme [3] = assay: Measurement of hydrolyzing enzyme activity for HTL (DTNB rate assay, H-7170 analyzer); assay type: biochemical, human; conditions: substrate DL-HTL
Procedure: Hydrolyzing enzyme activity for HTL was measured with purified water and above-mentioned samples.
Reagent 1(A): SH-group detection solution; 0.2 M MOPS buffer containing 0.5 mM CaCl2 and 1.0 mM DTNB (pH 7.8).
Reagent 1(B): SH-group detection solution; 0.2 M MOPS buffer containing 2 mM EDTA and 1.0 mM DTNB (pH 7.8).
Reagent 1(C): SH-group detection solution; 0.2 M MOPS buffer containing 0.5 mM CaCl2, 0.1 mM physostigmine sulfate and 1.0 mM DTNB (pH 7.8).
Reagent 1(D): SH-group detection solution; 0.2 M MOPS buffer containing 0.5 mM CaCl2, 0.1 mM neostigmine bromide and 1.0 mM DTNB (pH 7.8).
Reagent 2: substrate solution; aqueous solution containing 125 mM DL-HTL (Tokyo Chemical Industry Co., Ltd).
For measurement of HTL hydrolyzing enzyme activity, H-7170 automatic analyzer (Hitachi, Ltd.) was used. Parameters for measurement were as follows.
Following the above parameters, purified water, 15 μl of a sample and 200 μl of reagent 1(A) or 1(B) or 1(C) or 1(D) was dispensed and mixed, and, after a certain length of time at a constant temperature (37° C., 5 min), 50 μl of reagent 2 was added and mixed to allow reaction to start.
(§2) The activity value of HTL hydrolyzing enzyme in each sample was calculated based on: the change in absorbance per unit of time (1 min) (ΔE) from 2-minute up to 4-minute time points after the addition of the substrate (reagent 2), the molecular extinction coefficient of 5-thio-2-nitrobenzoic acid at the wavelength of 480 nm, ε=2509, and the molecular extinction coefficient of the compound at the wavelength of 546 nm, ε=78.

HTL hydrolyzing enzyme [4] = assay: Measurement of hydrolyzing enzyme activity for TBL (DTNB rate assay, H-7170 analyzer); assay type: biochemical, human; conditions: substrate TBL
Procedure: Hydrolyzing enzyme activity for TBL was measured with above-mentioned samples and unprepared serum.
Reagent 1(A): SH-group detection solution; 0.2 M MOPS buffer containing 0.5 mM CaCl2 and 1.0 mM DTNB (pH 7.2).
Reagent 1(B): SH-group detection solution; 0.2 M MOPS buffer containing 2 mM EDTA and 1.0 mM DTNB (pH 7.2).
Reagent 1(C): SH-group detection solution; 0.2 M MOPS buffer containing 0.5 mM CaCl2, 0.1 mM physostigmine sulfate and 1.0 mM DTNB (pH 7.2).
Reagent 1(D): SH-group detection solution; 0.2 M MOPS buffer containing 0.5 mM CaCl2, 0.1 mM neostigmine bromide and 1.0 mM DTNB (pH 7.2).
Reagent 2: substrate solution; aqueous solution containing 125 mM TBL (Aldrich).
For measurement of hydrolyzing enzyme activity TBL, H-7170 automatic analyzer (Hitachi, Ltd.) was used. Parameters for measurement were as follows.
Following the above parameters, 15 μl of a sample and 200 μl of reagent 1(A) or 1(B) or 1(C) or 1(D) was dispensed and mixed, and, after a certain length of time at a constant temperature (37° C., 5 min), 50 μl of reagent 2 was added and mixed to allow reaction to start.
as §2, with “enzyme for TBL” for “enzyme”

cholinesterase = cholinesterase (Homo sapiens, UniProt P06276); conditions: Nescoat ChE V-2 according to the package insert
Procedure: Cholinesterase activity was measured with the above-mentioned samples and unprepared serum. Measurement of cholinesterase activity was carried out using Nescoat ChE V-2 (Alfresa Pharma Coporation) according to the package insert.

Molecule	stability of substrate in the reaction solution (autolysis, increase in absorbance of reagent-blank) [1]	hydrolysis by purified human cholinesterase [2]	activity value of HTL hydrolyzing enzyme, No addition (HTL hydrolyzing enzyme [3]; Reagent 1(A): 0.5 mM CaCl2, pH 7.8, 37° C., no inhibitor)	activity value of HTL hydrolyzing enzyme, EDTA.2Na (HTL hydrolyzing enzyme [3]; Reagent 1(B): 2 mM EDTA, pH 7.8, 37° C.)	activity value of HTL hydrolyzing enzyme, Physostigmine sulfate (HTL hydrolyzing enzyme [3]; Reagent 1(C): 0.5 mM CaCl2, 0.1 mM physostigmine sulfate, pH 7.8, 37° C.)	activity value of HTL hydrolyzing enzyme, Neostigmine bromide (HTL hydrolyzing enzyme [3]; Reagent 1(D): 0.5 mM CaCl2, 0.1 mM neostigmine bromide, pH 7.8, 37° C.)	activity value of HTL hydrolyzing enzyme for TBL, No addition (HTL hydrolyzing enzyme [4]; Reagent 1(A): 0.5 mM CaCl2, pH 7.2, 37° C., no inhibitor)	activity value of HTL hydrolyzing enzyme for TBL, EDTA.2Na (HTL hydrolyzing enzyme [4]; Reagent 1(B): 2 mM EDTA, pH 7.2, 37° C.)	activity value of HTL hydrolyzing enzyme for TBL, Physostigmine sulfate (HTL hydrolyzing enzyme [4]; Reagent 1(C): 0.5 mM CaCl2, 0.1 mM physostigmine sulfate, pH 7.2, 37° C.)	activity value of HTL hydrolyzing enzyme for TBL, Neostigmine bromide (HTL hydrolyzing enzyme [4]; Reagent 1(D): 0.5 mM CaCl2, 0.1 mM neostigmine bromide, pH 7.2, 37° C.)	Cholinesterase activity (cholinesterase)	Cholinesterase activity (cholinesterase; listed as human cholinesterase)
NC1CCSC1=O (stereo not drawn) [HTL, homocysteinethiolactone]	unstable in the reaction solution	not hydrolyzed	–	–	–	–	–	–	–	–	–	–
B1	–	–	8	6	−1	−2	403	399	1	2	15392	observed
